Test [1] concerns the target T1, rHuman ErbB2/Fc Chimera, CF (Cat# 1129-ER) (human, UniProt P04626 23-652).
T1 construct: Bought from R&D Systems; also called human epidermal growth factor 2 receptor (ErbB2)
Description: Multispot ECL; Fab 8.1 nM. How it is done:
(§1) An 150 μl aliquot of 1% Bovine Serum Albumin (BSA) in Tris-buffered Saline Tween (TBST) was added to each well and allowed to incubate for 30 min at 20° C. followed by washing and tap drying to completely remove any residual solution. Subsequently, a 12.5 μl aliquot of 1% BSA TBST was added to each well followed by the addition of a 12.5 μl aliquot of a purified Fab. The plate was sealed and incubated for 1 hour at 20° C. with shaking.
(§2) Detection antibodies were prepared by individually conjugating both goat anti-human Kappa light chain polyclonal antibody (K3502-1MG, Sigma-Aldrich) and goat anti-human Lambda light chain polyclonal antibody (L1645-1 mL, Sigma-Aldrich) with Ruthenium (II) tris-bipyridine-(4-methylsulfone)-N-hydroxysuccinimide (SULFO-TAG NHS-ester, Meso Scale Discovery) according to the manufacturer's instructions. TAG-detection antibody at 25 μl was added to each well and allowed to incubate for 1 hour at 20° C. with shaking. Finally, 15 μl of Read Buffer P with Surfactant (Cat # R92PC-1, Meso Scale Discovery) was added to each well. The electrochemiluminescence was measured using a Sector Imager 2400 (Meso Scale Discovery). Data was analyzed by comparing the ECL signals for an antigen to the blank of each well. A signal to blank ratio of 4 or more was considered a “Hit” Fab.
(§3) To confirm a “Hit” from the initial Multispot ECL screening, a Fab concentration dependent titration was carried out to determine the Fab-antigen binding affinity.

The target of test [2] is T2, rHuman EGF R/Fc Chimera, CF (Cat# 344-ER) (human, UniProt P00533 25-645).
T2 construct: Bought from R&D Systems; also called epidermal growth factor receptor (EGF R)
Description: Multispot ECL; Fab 8.1 nM. Here is the method: as §1, §2, §3

Test [3] deals with T3, rHuman HGF R/c-MET/Fc Chimera, CF (Cat# 358-MT/CF) (human, UniProt P08581 25-932).
T3 construct: Bought from R&D Systems; also called HGF R/Fc; hepatocyte growth factor receptor (HGF R/c-Met)
The experiment in a line: Multispot ECL; Fab 8.1 nM. Here is the method:
as §1, §2, §3

Test [4] has as its target T4, rHuman Notch-1/Fc Chimera, CF (Cat# 3647-TK) (human, UniProt P46531 19-526).
T4 construct: Bought from R&D Systems
The experiment in a line: Multispot ECL; Fab 8.1 nM. How it is done:
as §1, §2, §3

The target of test [5] is T5, rHuman IGF-1 sR, (IGF-1 sR), CF (Cat# 391-GR) (human, UniProt P08069 31-932).
T5 construct: Bought from R&D Systems; also called insulin-like growth factor-1 soluble receptor
The experiment in a line: Multispot ECL; Fab 8.1 nM. How it is done:
as §1, §2, §3

Test [6] addresses T1, rHuman ErbB2/Fc Chimera, CF (Cat# …). Description: Multispot ECL; Fab 32.5 nM. How it is done: as §1, §2, §3
Test [7] addresses T2, rHuman EGF R/Fc Chimera, CF (Cat# …). The experiment in a line: Multispot ECL; Fab 32.5 nM. How it is done:
as §1, §2, §3

Test [8] deals with T3, rHuman HGF R/c-MET/Fc Chimera, CF (Cat# …). The experiment in a line: Multispot ECL; Fab 32.5 nM. Here is the method: as §1, §2, §3
Test [9] concerns the target T4, rHuman Notch-1/Fc Chimera, CF (Cat# …). The experiment in a line: Multispot ECL; Fab 32.5 nM. Here is the method:
as §1, §2, §3

Test [10] addresses T6, rHuman CD44/Fc Chimera, CF (Cat# 3660-CD) (human, UniProt P16070 21-220).
T6 construct: Bought from R&D Systems
Description: Multispot ECL; Fab 32.5 nM. Here is the method:
as §1, §2, §3

The target in test [11] is T5, rHuman IGF-1 sR, (IGF-1 sR), CF (Cat# …). The experiment in a line: Multispot ECL; Fab 32.5 nM. How it is done:
as §1, §2, §3

The target of test [12] is T7, rHuman Erythropoietin R/Fc Chimera, CF (Cat# 963-ER) (human, UniProt P19235 25-250).
T7 construct: Bought from R&D Systems; also called EPO R/Fc; Epo R/Fc chimera
T7 sequence (looked up): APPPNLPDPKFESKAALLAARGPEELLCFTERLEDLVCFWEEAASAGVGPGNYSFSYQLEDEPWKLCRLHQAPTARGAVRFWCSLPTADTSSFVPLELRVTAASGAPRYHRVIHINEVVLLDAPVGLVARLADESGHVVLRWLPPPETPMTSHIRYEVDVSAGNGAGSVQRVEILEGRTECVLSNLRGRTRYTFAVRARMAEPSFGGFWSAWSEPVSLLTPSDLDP
Description: Multispot ECL; Fab 32.5 nM. Here is the method:
as §1, §2, §3

In test [13] the target is T8, Recombinant Human DLL4 (Cat# 1506-D4/CF) (human, UniProt Q9NR61 27-529).
T8 construct: Bought from R&D Systems; also called rHuman DLL4; hDLL4
Description: Multispot ECL; Fab 32.5 nM. Here is the method:
as §1, §2, §3

B1: Fab VH1-8_IGHD2-2*01_IGHJ6*01 & L12_IGKJ1*01 (Fab, V domains shown)
VH: QVQLVQSGAEVKKPGASVKVSCKASGYTFTSYDINWVRQATGQGLEWMGWMNPNSGNTGYAQKFQGRVTMTRNTSISTAYMELSSLRSEDTAVYYCARGGYCSSTSCYADYYYYYGMDVWGQGTTVTVSS
VL: not shown
Consider B1, for which the ECL signal in test [1] turned out to be 557; in test [2], 560; in [3], 551; in test [4], 612; in test [5], 518; in [6] it was 556. In addition, the ECL signal was 645 in test [7]; 525 in [8]; 706 in test [9]; 573 in [10]; 561 in [11]; 673 in [12]. The ECL signal in [13] turned out to be 2990.

The values are drawn from US20110318339A1 (FABRUS, published 2011).
